Experimental data as given in the supplement of paper PMC12067230.
± gives the uncertainty stated by the source.

B1: F-23-V; numbered along this chain (parent)
chain: EASNCFAIRHFENKFAVETLICFNLFLNSQEKHY

Variants of: B1
Assay: amyloid nucleation score relative to WT ADan (yeast Sup35 reporter selection) (log enrichment difference); higher = more amyloid nucleation
Method in brief: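 Substitution and stop-truncation variants of a peptide joined to the Sup35 nucleation domain were expressed in psi-minus, pin-minus S. cerevisiae for 24 h in SC-URA with 2% glucose and 100 μM copper sulfate, then selected without adenine for 7 d at 30 °C, with variants below 200 input reads dropped after Illumina sequencing. Each nucleation score is log output/input enrichment relative to the unmutated peptide, merged across the three biological replicates in DiMSum by error-weighted mean.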

In order of rising amyloid nucleation score:
1. E31W  -6.44 ± 1.2
2. E31F  -5.7 ± 0.96
3. N24W  -4.76 ± 0.79
4. N24C  -4.06 ± 0.36
5. N24R  -4.05 ± 0.38
6. N24I  -3.74 ± 0.28
7. N24E  -3.7 ± 0.4
8. N24M  -3.68 ± 0.37
9. N24H  -3.55 ± 0.44
10. N24D  -3.51 ± 0.25
11. N24L  -3.39 ± 0.23
12. F26P  -3.34 ± 0.54
13. F26K  -3.31 ± 0.46
14. E31L  -3.31 ± 0.34
15. N24F  -3.3 ± 0.3
16. N24K  -3.17 ± 0.28
17. N24Y  -3.1 ± 0.21
18. E31M  -3.06 ± 0.36
19. L25R  -3.04 ± 0.21
20. L25W  -2.87 ± 0.22
21. N24V  -2.78 ± 0.16
22. N28R  -2.75 ± 0.18
23. L25K  -2.69 ± 0.35
24. N28K  -2.63 ± 0.29
25. E31I  -2.59 ± 0.25
26. F26R  -2.51 ± 0.17
27. E31R  -2.51 ± 0.16
28. E31Y  -2.5 ± 0.28
29. L25H  -2.4 ± 0.3
30. L25S  -2.33 ± 0.17
31. N24T  -2.11 ± 0.21
32. E31C  -2.07 ± 0.2
33. L25E  -1.98 ± 0.24
34. L25G  -1.88 ± 0.14
35. S29W  -1.86 ± 0.15
36. E31K  -1.84 ± 0.2
37. N28H  -1.83 ± 0.29
38. L25P  -1.7 ± 0.32
39. S29F  -1.68 ± 0.16
40. S29Y  -1.65 ± 0.17
41. E31H  -1.64 ± 0.22
42. N24A  -1.52 ± 0.15
43. Q30K  -1.41 ± 0.17
44. E31A  -1.39 ± 0.15
45. H33C  -1.33 ± 0.19
46. K32I  -1.31 ± 0.18
47. S29I  -1.29 ± 0.13
48. E31T  -1.22 ± 0.17
49. N28Y  -1.12 ± 0.17
50. L25D  -1.12 ± 0.21
51. E31V  -1.09 ± 0.11
52. S29R  -1.08 ± 0.082
53. N28W  -1.06 ± 0.16
54. N28V  -1.04 ± 0.12
55. H33I  -1.01 ± 0.19
56. L27R  -1.01 ± 0.091
57. N24Q  -0.992 ± 0.2
58. N28I  -0.963 ± 0.19
59. E31S  -0.961 ± 0.12
60. L27K  -0.947 ± 0.16
61. N28L  -0.936 ± 0.11
62. Q30I  -0.931 ± 0.14
63. Q30R  -0.927 ± 0.079
64. S29L  -0.878 ± 0.081
65. E31Q  -0.871 ± 0.2
66. E31N  -0.844 ± 0.19
67. Q30W  -0.8 ± 0.12
68. H33W  -0.788 ± 0.17
69. N24S  -0.773 ± 0.093
70. Q30Y  -0.751 ± 0.14
71. K32W  -0.739 ± 0.13
72. K32F  -0.726 ± 0.15
73. F26D  -0.707 ± 0.18
74. H33L  -0.693 ± 0.12
75. H33V  -0.668 ± 0.11
76. Y34W  -0.636 ± 0.14
77. F26M  -0.622 ± 0.18
78. K32V  -0.601 ± 0.097
79. K32L  -0.598 ± 0.098
80. S29H  -0.577 ± 0.18
81. N24G  -0.57 ± 0.096
82. E31P  -0.569 ± 0.2
83. E31G  -0.564 ± 0.087
84. Q30F  -0.531 ± 0.12
85. L27F  -0.518 ± 0.12
86. F26I  -0.509 ± 0.14
87. H33A  -0.505 ± 0.13
88. S29M  -0.489 ± 0.13
89. H33G  -0.479 ± 0.096
90. N28E  -0.442 ± 0.17
91. F26L  -0.42 ± 0.1
92. H33T  -0.406 ± 0.17
93. N28M  -0.403 ± 0.17
94. F26Q  -0.394 ± 0.21
95. Y34N  -0.386 ± 0.18
96. Q30N  -0.383 ± 0.14
97. N28S  -0.365 ± 0.11
98. Q30H  -0.33 ± 0.15
99. Q30C  -0.317 ± 0.12
100. F26A  -0.314 ± 0.14
101. N28T  -0.313 ± 0.17
102. S29V  -0.294 ± 0.084
103. H33M  -0.289 ± 0.17
104. S29A  -0.27 ± 0.11
105. L25I  -0.254 ± 0.15
106. Q30M  -0.23 ± 0.12
107. H33Y  -0.228 ± 0.17
108. Y34F  -0.228 ± 0.14
109. Y34I  -0.222 ± 0.16
110. Q30T  -0.212 ± 0.11
111. H33P  -0.211 ± 0.18
112. Y34P  -0.211 ± 0.18
113. H33F  -0.205 ± 0.18
114. N24P  -0.19 ± 0.18
115. H33R  -0.172 ± 0.093
116. H33Q  -0.171 ± 0.18
117. S29P  -0.168 ± 0.14
118. F26Y  -0.164 ± 0.13
119. H33S  -0.164 ± 0.1
120. Q30A  -0.161 ± 0.099
121. S29G  -0.16 ± 0.079
122. K32M  -0.157 ± 0.14
123. Q30P  -0.153 ± 0.12
124. F26V  -0.146 ± 0.095
125. K32C  -0.144 ± 0.13
126. Q30L  -0.134 ± 0.074
127. Q30V  -0.127 ± 0.076
128. L25V  -0.125 ± 0.1
129. F23W  -0.121 ± 0.14
130. Q30G  -0.112 ± 0.071
131. N28F  -0.101 ± 0.16
132. Q30S  -0.0951 ± 0.078
133. F26T  -0.0939 ± 0.16
134. K32R  -0.086 ± 0.083
135. L27A  -0.084 ± 0.11
136. H33K  -0.0712 ± 0.19
137. Y34T  -0.062 ± 0.14
138. N28D  -0.0589 ± 0.17
139. Y34A  -0.0498 ± 0.12
140. S29C  -0.0428 ± 0.11
141. K32Y  -0.0344 ± 0.16
142. N28Q  -0.0342 ± 0.22
143. Y34L  -0.0163 ± 0.1
144. F26S  -0.00989 ± 0.098
145. E31D  -0.000529 ± 0.15
146. K32P  0.00117 ± 0.17
147. L27I  0.00956 ± 0.13
148. Y34H  0.0246 ± 0.18
149. Y34V  0.031 ± 0.11
150. K32Q  0.041 ± 0.16
151. S29T  0.043 ± 0.12
152. N28P  0.0596 ± 0.18
153. L27W  0.0695 ± 0.11
154. S29N  0.0767 ± 0.12
155. Y34M  0.0777 ± 0.15
156. N28G  0.0833 ± 0.098
157. L25F  0.0915 ± 0.14
158. F26W  0.102 ± 0.14
159. F26N  0.113 ± 0.17
160. K32G  0.113 ± 0.081
161. F23Y  0.115 ± 0.13
162. N28A  0.139 ± 0.13
163. H33N  0.15 ± 0.16
164. L27M  0.15 ± 0.13
165. L27Y  0.163 ± 0.13
166. H33E  0.174 ± 0.16
167. L25M  0.178 ± 0.14
168. K32A  0.179 ± 0.12
169. L27V  0.187 ± 0.079
170. Y34S  0.193 ± 0.1
171. Y34G  0.194 ± 0.098
172. Y34Q  0.196 ± 0.2
173. K32S  0.198 ± 0.091
174. F23V  0.2 ± 0.1
175. F26C  0.2 ± 0.14
176. S29K  0.205 ± 0.13
177. Q30D  0.207 ± 0.13
178. Q30E  0.219 ± 0.11
179. S29E  0.219 ± 0.14
180. Y34K  0.234 ± 0.17
181. K32T  0.234 ± 0.13
182. F26H  0.258 ± 0.19
183. H33D  0.264 ± 0.15
184. K32H  0.279 ± 0.17
185. Y34E  0.297 ± 0.14
186. L27H  0.303 ± 0.18
187. L25N  0.307 ± 0.17
188. S29Q  0.312 ± 0.16
189. Y34C  0.316 ± 0.14
190. Y34D  0.321 ± 0.13
191. S29D  0.326 ± 0.14
192. L25T  0.368 ± 0.14
193. L25Q  0.382 ± 0.21
194. L27Q  0.391 ± 0.15
195. F26E  0.392 ± 0.16
196. Y34R  0.398 ± 0.088
197. L27D  0.457 ± 0.13
198. N28C  0.468 ± 0.14
199. L27N  0.524 ± 0.13
200. L25Y  0.539 ± 0.16
201. L27P  0.545 ± 0.17
202. L27E  0.567 ± 0.12
203. L27C  0.66 ± 0.12
204. L27S  0.669 ± 0.082
205. K32N  0.686 ± 0.14
206. L27G  0.726 ± 0.075
207. L27T  0.731 ± 0.12
208. L25C  0.731 ± 0.15
209. K32D  0.768 ± 0.14
210. F26G  0.778 ± 0.095
211. K32E  0.78 ± 0.13
212. L25A  0.9 ± 0.13
